Assay results: the DeepSol protein solubility set

Assay: soluble on expression in E. coli; label from the status in PepcDB or PDB records

Row | Sequence | soluble on expression in E. coli
1 | MTMPDYDLIAILGPTASGKTPFAAALAAELNTEIISADSRQIYRGMDLGTGKDLEDYTINGRQIPYHLIDIADPGYKYNVFEYQRDFLTAYETIKQKGCLPVLCGGTGLYLESVLKGYRLIPVPENQELRVRLAEKSLEELTAILSSYKTLHNSTDVDTVKRAIRAIEIEEYYAKTPIEEREFPQLNSLIIGVDIDRELRREKITRRLKQRLDDGMVEEVRRLLAEGIQPDDLIYYGLEYKYLTLYAIGKMTYDEMFTGLETAIHQFAKRQMTWFRGMERRGFTIHWVDASLPMEEKINFVKQKLKEFLEHHHHHH | not soluble
2 | QTLLNVTLESESMAVDEVVVSARRLNRNDLGISDKEMVSATQKVDMEKLIAAAPVVSIEEALQGQLGGVDIVLGGDPGSRSAIRIRGTSTLNASSDPLIVIDGVPYPTEISDDFNFSTATEEDLGALLNISPNDIASVEVLKDASATAIWGTQGANGVLVIKTKQGT | not soluble
3 | MAHHHHHHMALYIIGLGLGDERDVSVKGKELIEMSDVVYLESYTSVLFVSKNTLEEFYKKNIKEVDRNLAEENCEEILKEAINKKVSFLVVGDPLCATTHHDIILRAKKKNINVQVIHNASVMSAIGESGMQLYNFGQTVSIPYFEGNYKPTSFYDKIKVNLDNNFHTLCLLDIKVKERTIENMMKNKNIYEPSRFMTVNEAIEQLLYCEEVLKKNVITDNTRGIAIVRIGSDSQQIVSGSLLALKSVSYNDPLHSLIICAPTLHDVEREYFEMYQHRC | soluble
4 | MEKHEEENGLCKAESVDGSLDVWSCQNSDSSSADHLVVMVHGILGSTDDWKFGAEQFVKKMPDKVFVHCSEKNVSALTLDGVDVMGERLAAEVLDIIQRKPNICKISFVAHSLGGLAARYAIGKLYKPANQEDVKDSVADSSQETPKGTICGLEAMNFITVATPHLGSMGNKQVPFLFGFSSIEKVAGLIIHWIFKRTGRHLFLKDEEEGKPPLLRRMVEDTDDCHFISALRAFKRRVAYSNVGHDHVVGWKTASIRRDSELPKWEDSLNEKYPHIVYEELCKACDMEDIPEGENHSDDIEEEMIKGLSSVSWEKVDVSFHSSRQRFAAHSVIQVKNEDMHIEGADVIEHIIDHFHA | soluble
5 | MIELTITNATITAGDTPLLTNASLHVGSGECVALMGESGSGKTTLAQAILGYLAPGCRWCSGSIDVDGLNPLQLAPRSLRELRKRCAYVDQDPGAALPPGHSVRSIVRSRASLSDAQMLSIFGDFGLGDIDR | not soluble
6 | MSPVVSEASPERWDDETDVLVIGSGAGGLSAALFAAQAGLRVLICEKLAYVGGTTATSGGGIWVPGTKAGLAAGDTLEAARTYLKALLGDFYQEEVIDTYLATGGKVIDFLNENTEVKFDLSSWPDYRSSLPGGATRGRSLFPQPFDGKKLGRNFSLLHPPLHRLMVLGGLMLGPEEVHDFLRPFSSPRALMRVLRKLLRYGMDRIRYARGTDLRSGNALAARLLYSVDKLGCRILTQADLESLAIDHDRVIGATVVVGGVPKRIRASKAVLLATGGFAHNQEMLRRYGPATPHRFSLCNPACTGAGIQAALDAGASVDRELSSVGFWTPASASREKNGADTPVIYSYLDRGRPGVIAVNEQGERFVNEANSYHDIVTAIFANGGADGKPFYFITDREFVRRHGLGLIRPWPWNRSLRPWIRRGYITVASTLDKLGPKIGIDPGALAAAVQRHNQSARTGQDPDFHKGASAYNRMFGHNMIWPNPNLAPIETPPFVALRIHPATIGTAMGLKTSASGQALNAAGQPISGLYACGNDQASPFRGFYPGGGSTLGPAIVGAYLAVQSLSKQLEHHHHHH | not soluble
7 | MGSDKIHHHHHHMKPIDQITSWMQEALRPYFGLEPLSAEWDILTVRDGYFICFDGDTIRKRITATELNYQEEDVIIQTSEREVVLPRTARGKEKKLTYTSVSSVMADGIVFSAGIRTLNSGRYGYINVSNYRNSIRLPLPECRDLASKGEIVEWLQSYRERVPADYAHKLERLMHMKNRQHKTIPGDVFRVEIDLHTDGYVLVIGNLRQMQKDELFAEHSIWNDVMTMPLFVRPYLFRTTVRNPSLSEIVASPLSDKCWIVMDNAFLRGNYEYVGSKILAEEDILFPVGYGSSISAQKSDYRLSWGPNSISKASQDTGLKAGRSYMNNGAYSSVSADCFVDRGFPDWDKTLLNPEHLEAWEQVLAEFGFPPDTTYDAFAQRTDGMTRAAYLTYVAENKAYQRKGRAKKKGS | not soluble
8 | MSLDEKLRTSGVQVIGDIAWGTHFCQFYRTQEELVNVVCPYLKAGLEGNELCIWALPRDFETKKEAEGPLRRTIPKLDIYLEKGQMEIISYKDRYAEKEIPDSKKALENLIKKADYALLNGYSGLRLVQDTSWLKNDWKNLTGYEEELDIAIENRRITALCTYSSGKFDTDETIYAALSHRFVLVKKEGNWEKVENPRLKKAEERVIQPSEEVETKTEEENENLKKLLEERTVELTEAYKSLKVNEKQFLQIRKMTHIGNWKWDILTGELHWSDEVYRIFGRDPERFKATCDAFLGSVHPDDREYLINSIKKDFDEQIRNIDYRIVLPDGEERTVRTRVEITFDEEGHHHHHH | not soluble
9 | MSLAEQLAIADLQVDIKQIPLKQPFVTALHRVDAVNAVRVTVRLANGVTGVGTCTPNEKVTGDSLSSARAVIEETIKPLVLGKNLTDWKELLNTVKTSIVHNAPAKAAVEIALYNTRANLFGLTLSQLLGGKGGSVETDYTISIGKAEQMIADAQKMVDQGFKTLKLKLGAGHLKRDIKLVEDLAYAAGPMVHLRLDMNQACDVRQTMQAAEYWHKQGLLIDFIEQPVPAWDLDSMAYLTRHSPYPIMADESVESYEDAQRVLAKNACDYINIKLMKTGGLSEAQKINDLAESRGVPTMVGSMIESIESLAAACAFYRANPNTIFADLDAIFMVDQDPDLNSYAECVGDNIVVREGHHHHHH | soluble
10 | MSLIKVPCMQITNMHCSGQTVSLAAGDYHATIVTVGAGLAELTFQGCHLVIPHKPEEMPLAHLGKVLIPWPNRIANGCYRYQGQEYQLPINEHSSKAAIHGLLAWRDWQISELTATSVTLTAFLPPSYGYPFMLASQVVYSLNAHTGLSVEIASQNIGTVAAPYGVGIHPYLTCNLTSVDEYLFQLPANQVYAVDEHANPTTLHHVDELDLNFTQAKKIAATKIDHTFKTANDLWEMTITHPQQALSVSLCSDQLWVQVYSGEKLQRQGLAVEPMSCPPNAFNSGIDLLLLESGKPHRLFFNIYGQRKMGHHHHHHSH | not soluble
11 | SNAMKAIIKEDVQASLERYADRPVYIHLETTTGSYSAHLNEKNMTVVAYIRNAKVTYHQAKIKGNGPYRVGLKTEEGWIYAEGLTEYTVDEENRLLMAGHLPGGKLAISLQISEKPFTV | soluble
12 | MEVFVFTPKGDLYKMPKGATVLDFAFAIHSKLGSKCIGAKVNGKNAQLKQTLNSGDQVEVMTSNTQTPKLEHHHHHH | not soluble
13 | MAKYHDIASPAYILEEDLLRRNLSLIASVADRTGVEIILAFKAYALWRTFPIIREYVPHSTASSVWEARLAFEEMGAPAHTFSPAYTPEEFPEILRYSSHVTFNSLSQYYLLSPMVKNVGVSLGLRINPEYSAVETALYNPCAPGSRFGVSASELGDTLPEGIEGLHFHTLCESTGYELEKTLKIIEDRFASVLEQA | not soluble
14 | MAHHHHHHMLRHCTAHRRYRTAWRELLHPLPVRARKMEWLKRDAVEENEEILRRPYYTIKSYALPPAVGRQESIHNSNNIRGGMHSSHSLDLIMRQPRRVKTPEQLQALRDRLRFIGVTGPMPQATSVSTKSYADTYGSRLRPRYPESWDTVPPHQPSRELL | soluble
15 | MGLIEDKALVEAALFVAGRPLSLKELSKALGIKSLDYLEKLIELIASEYAERKSAIEIVKVAGDKWVMQVKQEYSQRVIPLMPKPELSTGELKTLALIAYLQPVEQSKIVKLRGSQAYEHIRKLLEMGLIYAEPYERTRLLGTTEKFAELYGFPENDPMLIKETFKKVIHAEYSDLMKKIEESEKKKE | soluble
16 | MVVFNGLLKIKICEAVSLKPTAWSLRDAVGPRPQTFLLDPYIALNVDDSRIGQTATKQKTNSPAWHDEFVTDVCNGRKIELAVFHDAPIGYDDFVANCTIQFEELLQNGSRHFEDWIDLEPEGKVYVIIDLSGSSG | soluble
17 | MLAVHRPSSAVSDGDSVQIPMMIASFQKRFPSLSRDSTAARFHTHEVGPNQCCSAVIQEISAPISTVWSVVRRFDNPQAYKHFLKSCSVIGGDGDNVGSLRQVHVVSGLPAASSTERLDILDDERHVISFSVVGGDHRLSNYRSVTTLHPSPISGTVVVESYVVDVPPGNTKEETCDFVDVIVRCNLQSLAKIAENTAAESKKKMSL | not soluble
